Measurements as given in patent US20230167198A1 (University of California, published 2023).

Columns and labels:
[1] = biological target: T1, K(IV2)5 recombinant apolipoprotein(a) construct (5 copies of KIV2) (UniProt P08519 131-700, limits assumed); assay: dot-blot, pattern duplicated by western blot
T1 construct: domain: KIV2, 5 copies
T1 sequence (looked up): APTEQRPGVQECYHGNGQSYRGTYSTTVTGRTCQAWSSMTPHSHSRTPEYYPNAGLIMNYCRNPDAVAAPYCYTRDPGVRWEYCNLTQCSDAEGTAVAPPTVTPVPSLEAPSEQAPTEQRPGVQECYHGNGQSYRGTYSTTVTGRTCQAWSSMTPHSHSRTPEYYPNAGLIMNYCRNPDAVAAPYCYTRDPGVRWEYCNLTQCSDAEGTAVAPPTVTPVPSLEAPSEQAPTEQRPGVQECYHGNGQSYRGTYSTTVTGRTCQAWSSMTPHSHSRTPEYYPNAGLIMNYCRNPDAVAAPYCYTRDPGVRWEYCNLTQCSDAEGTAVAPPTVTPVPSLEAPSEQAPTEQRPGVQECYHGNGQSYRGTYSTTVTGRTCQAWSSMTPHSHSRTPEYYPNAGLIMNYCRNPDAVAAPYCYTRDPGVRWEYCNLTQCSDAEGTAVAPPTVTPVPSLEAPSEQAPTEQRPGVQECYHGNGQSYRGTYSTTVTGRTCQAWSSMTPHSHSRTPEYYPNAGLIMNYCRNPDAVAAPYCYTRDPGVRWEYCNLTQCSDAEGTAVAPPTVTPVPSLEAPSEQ
Experimental: (§1) Lp(a) and array of recombinant apo(a) constructs were used to test LPA-KIV₉ binding by (A) Dot-blot (25 ng protein/dot) and (B) western blot (WB) under reducing conditions (250 ng protein/well).
(§2) Imunoblot analyses. An array of apo(a) constructs was subjected to gel electrophoresis and immunoblot analysis with LPA-KIV9. Briefly, samples (250 ng/well) were loaded in reducing loading buffer and run on a 4-12% Bis-Tris gel (Life Technologies). Gels were transferred to a PVDF membrane (Life Technologies), and the membranes were blocked with 5% nonfat dry milk in Tris-buffered saline and Tween (TBST) for 1 hour before incubation with primary antibodies (1 μg/ml in 1% BSA-TBST) overnight at 4° C., followed by incubation with secondary antibodies conjugated with horse-radish peroxidase (Cell Signaling Technology, Beverly, Mass.) for 1 hour at room temperature and by detection with KPL-TMB membrane peroxidase substrate (SeraCare, Milford, Mass., USA). A dot-blot was also performed with antigens in PBS (25 ng/dot) loaded directly on the membrane. Blocking and immunoblotting were done as described above and detected by a Super Signal West Dura substrate (Thermo Fisher Scientific, Waltham, Mass.) and an OptiChem HR imaging system (UVP, Upland, Calif.).
(§3) Determination of the binding domain of LPA-KIV₉ on apolipoprotein(a). […]

[2] = biological target: T2, KIV10-P recombinant apolipoprotein(a) construct (UniProt P08519 1605-2040, limits assumed); assay: dot-blot, pattern duplicated by western blot
T2 construct: domain: KIV10 to the protease domain
Experimental: as §1, §2, §3

[3] = biological target: T3, human plasminogen (R&D, Minneapolis, Minn.) (human, UniProt P00747 20-810); assay: ELISA of hybridoma subclones on coated antigen
T3 construct: Bought reagent
Experimental: (§4) (A) Mouse plasma titers of Lp(a)-specific antibodies: Following the first boost target-specific antibody titers were determined by ELISA against immobilized antigen by screening serial dilutions of the serum. The graph represents the mean of technical triplicates measurements at 1:400 plasma dilution. (B) Hybridoma screening: 576 hybridoma colonies were collected and expanded. Supernatants were screened by ELISA against the target antigen Lp(a) and counter-screened against antigen K(IV₂)₃. […] (C) Limiting dilution: To ensure monoclonality, 10 positive colonies were subjected to 2 cycles of limiting dilutions, using semi-solid gel without hypoxanthine-aminopterin-thymidine medium. Collected subclones were tested by ELISA. Colony #1 found to specifically binds Lp(a), but not to plasminogen and KIV₂. […] Colony 1 was tested 5 times and designated LPA-KIV₉. (D) Purified LPA-KIV₉ binding to Lp(a) (5 ug/ml) was tested by ELISA. […] Mean±SD.
(§5) ELISA with direct antigen plating to assess binding of hybridoma generated antibodies. […] Bound IgG antibodies were detected using an anti-mouse IgG-alkaline phosphatase (ALP) conjugate (Sigma-Aldrich, St. Louis, Mo.), Lumi-Phos 530 substrate (Lumigen, Southfield, Mich.) and a luminescence plate reader (BioTek, Vermont).

[4] = biological target: T4, K(IV2)3 recombinant apolipoprotein(a) construct (3 copies of KIV2) (UniProt P08519 131-472, limits assumed); assay: ELISA of hybridoma subclones on coated antigen
T4 construct: domain: KIV2, 3 copies; also called apolipoprotein(a) KIV2
T4 sequence (looked up): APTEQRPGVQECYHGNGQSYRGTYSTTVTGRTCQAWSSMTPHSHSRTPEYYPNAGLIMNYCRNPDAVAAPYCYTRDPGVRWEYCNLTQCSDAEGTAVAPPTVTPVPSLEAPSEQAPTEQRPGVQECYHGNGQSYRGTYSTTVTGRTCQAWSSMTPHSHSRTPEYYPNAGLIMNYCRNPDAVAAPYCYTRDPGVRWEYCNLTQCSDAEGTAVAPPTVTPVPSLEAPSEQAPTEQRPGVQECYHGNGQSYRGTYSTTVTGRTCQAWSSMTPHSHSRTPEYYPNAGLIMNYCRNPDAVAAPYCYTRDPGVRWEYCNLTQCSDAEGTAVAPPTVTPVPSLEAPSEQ
Experimental: as §4, §5

T2 sequence (P08519 1605-2040 limits assumed): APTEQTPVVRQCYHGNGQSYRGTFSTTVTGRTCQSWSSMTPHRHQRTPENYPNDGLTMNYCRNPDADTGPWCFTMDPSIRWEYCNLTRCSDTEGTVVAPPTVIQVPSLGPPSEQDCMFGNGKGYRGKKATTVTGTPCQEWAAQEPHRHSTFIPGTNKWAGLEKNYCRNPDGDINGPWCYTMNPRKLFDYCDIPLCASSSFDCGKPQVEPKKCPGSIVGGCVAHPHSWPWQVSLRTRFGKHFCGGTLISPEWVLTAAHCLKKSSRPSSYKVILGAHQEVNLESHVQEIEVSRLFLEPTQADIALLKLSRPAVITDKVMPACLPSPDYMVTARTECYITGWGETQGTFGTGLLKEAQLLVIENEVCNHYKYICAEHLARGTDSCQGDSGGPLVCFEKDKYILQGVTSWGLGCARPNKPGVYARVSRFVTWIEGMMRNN
T3 sequence (P00747 20-810 limits assumed): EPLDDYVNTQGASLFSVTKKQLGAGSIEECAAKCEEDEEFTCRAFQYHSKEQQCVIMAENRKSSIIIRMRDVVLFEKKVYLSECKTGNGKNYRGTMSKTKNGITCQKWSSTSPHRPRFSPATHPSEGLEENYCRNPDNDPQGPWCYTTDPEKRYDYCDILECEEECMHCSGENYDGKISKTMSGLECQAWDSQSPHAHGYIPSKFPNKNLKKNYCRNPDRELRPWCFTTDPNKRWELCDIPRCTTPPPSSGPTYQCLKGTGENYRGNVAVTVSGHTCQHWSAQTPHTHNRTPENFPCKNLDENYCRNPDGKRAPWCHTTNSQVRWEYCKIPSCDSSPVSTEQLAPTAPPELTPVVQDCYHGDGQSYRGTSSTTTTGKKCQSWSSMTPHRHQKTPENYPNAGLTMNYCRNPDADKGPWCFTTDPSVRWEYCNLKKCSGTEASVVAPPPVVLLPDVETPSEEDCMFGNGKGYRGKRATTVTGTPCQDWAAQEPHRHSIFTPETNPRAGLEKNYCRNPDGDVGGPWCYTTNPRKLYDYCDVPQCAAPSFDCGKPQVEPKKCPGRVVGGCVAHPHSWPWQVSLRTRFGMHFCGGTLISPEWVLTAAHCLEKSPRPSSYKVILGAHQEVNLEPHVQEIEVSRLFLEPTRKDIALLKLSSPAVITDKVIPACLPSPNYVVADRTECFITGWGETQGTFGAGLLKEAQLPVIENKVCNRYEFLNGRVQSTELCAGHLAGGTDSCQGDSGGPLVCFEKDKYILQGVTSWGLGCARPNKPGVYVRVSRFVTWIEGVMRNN

B1: LPA-KIV9 murine monoclonal antibody (antibody, IgG1, V domains shown)
VH: QVQLQQSGAELVRPGASVKLSCKALGYTFTDYELHWLKQTPVHGLEWIGAVHPGSGGSAYNQNFKDKATLTADKSSSTAYMELSSLTSEDSAVYYCTREGPFYWGQGTTLTVSS
VL: DVVMTQTPLSLPVSLGDQASISCRSSQSLVHSNGNAYLHWYLQKPGQSPKLLIYKVSNRFSGVPDRFSGSGSGTNFTLKISRVEAEDLGIYFCSQSTHVPLTFGAGTKLELK
notes: constant regions are not; also called Colony #1; Colony 1
- binding result [1]: no binding (tested: 25 ng/dot)
- binding result [2]: no binding (tested: 25 ng/dot)
- binding result [3]: no binding
- binding result [4]: no binding
